Test results published in patent publication US20220089741A1 (HUABO BIOPHARM SHANGHAI, published 2022).
Each block holds one binder with its values, some of them ahead of it.

Tests used:
[1] = biological target: T1, rhPD-L1-his protein (monkey, UniProt G7PSE7 19-238); assay: ELISA, rhPD-L1-his coated
T1 construct: Bought protein; also called monkey PD-L1 protein; Sino Biological #90251-C08H; not shown: C-terminal His tag

[2] = biological target: T2, huPD-L1-his protein (human, UniProt Q9NZQ7 19-239); assay: ELISA, huPD-L1-his coated at 1 ug/ml
T2 construct: Bought protein; also called human PD-L1-His protein; human PD-L1 protein; not shown: His tag
Description: Specifically, 1 ug/ml huPD-L1-his protein (purchased from Sino Biological, #10084-H08H) was added to the ELISA plate at 50 ul/well, and coated at 2-8° C. for more than 12 hours. The raffinate of plate coating was discarded, 200 ul of 3% milk was added to each well, and blocked at room temperature for 1 hour. PBST not less than 200 uL was added to each well for washing once. The antibody sample to be tested was diluted to 100 ug/ml, then diluted 5 times for 11 gradients, and added to the ELISA plate at 100 uL/well. After incubation at room temperature for 1 hour, PBST no less than 200 uL was added to each well. After washing for 4 times, HRP-conjugated Rabbit Anti-Human IgG Fc Antibody (Luoyang Baiaotong Experimental Material Center, #C030222) diluted 25000 times with 3% milk-PBST was added as 100 uL/well. After incubating at room temperature for 1 hour, PBST not less than 200 uL was added to each well, washed 6 times and beat dry. 100 uL of TMB Substrate was added to each well. After 5 minutes of reaction at room temperature, 50 uL/well of 2M H2504 was added to terminate the reaction. The ELISA plate with stopped reaction was placed on the microplate reader, and the absorbance of OD450 value was read at 450 nm wavelength.

[3] = biological target: T3, huPD-L1-moFc (human, UniProt Q9NZQ7 19-238, limits assumed); assay: flow cytometry competition: blocking of huPD-L1-moFc binding to cells expressing human PD-1
T3 construct: also called 800023, Huabo Bio; not shown: mouse Fc
Description: The suspension of cells (3C2-huPD-1-6F4, Huabo Bio) expressing human PD-1 in the logarithmic growth phase was centrifuged (1000 rpm×5 min) to discard the culture medium, and the cells were resuspended with 1% BSA/PBS to a living cell density of 1×10⁶/ml. […] The reacted 96-well U-shaped plate was resuspended with 1% BSA/PBS, centrifuged (300 g×3 min) to discard the supernatant, and washed like this for twice. […] The reacted 96-well U-shaped plate was resuspended with 1% BSA/PBS, centrifuged (300 g×3 min) to discard the supernatant, and washed like this for three times. Finally, the plate was resuspended with 100 uL of 1% BSA/PBS for each well and the fluorescence intensity of the first channel was detected by flow cytometry (BD, #Accuri C6).

[4] = biological target: T2, huPD-L1-his protein; assay: SPR (Biacore 8K), antibody captured on anti-human capture CM5 chip, huPD-L1 as analyte, 1:1 model
Description: In this experiment, SPR method was used to determine antibody-antigen binding kinetics and affinity.
Anti-Human Capture-CM5 chip (GE, #BR-1005-30) was prepared according to the coupling method of Human Antibody Captrue Kit (GE, #BR-1008-39) and Amino Coupling Kit (GE, BR-1000-50). The chip was balanced at room temperature for 20-30 min, and loaded into a Biacore 8K instrument. B5D1 was diluted to the experimental working concentration with equilibration buffer. The antigen was diluted to 50 nM with equilibration buffer, then diluted 3 times for 7 concentration gradients, and 2 zero concentrations (i.e. equilibration buffer) and 1 repeated concentration (generally is a repeat of lowest concentration) were set. In the order of antibody, antigen huPD-L1 (Sino Biological, #10084-H08H), and regeneration, 10 antigen concentrations (2 zero concentrations, 7 gradient concentrations, and 1 repeat concentration) were cyclically subjected to experimental analysis. The antigen injection flow rate was 30 uL/min, the binding time was 120 seconds, and the dissociation time was 600 seconds.

[5] = biological target: human PD-L1 protein (hybridoma screening) (human, UniProt Q9NZQ7 19-239, limits assumed); assay: SPR, hybridoma monoclone
human PD-L1 protein (hybridoma screening), sequence (Q9NZQ7 19-239 limits assumed): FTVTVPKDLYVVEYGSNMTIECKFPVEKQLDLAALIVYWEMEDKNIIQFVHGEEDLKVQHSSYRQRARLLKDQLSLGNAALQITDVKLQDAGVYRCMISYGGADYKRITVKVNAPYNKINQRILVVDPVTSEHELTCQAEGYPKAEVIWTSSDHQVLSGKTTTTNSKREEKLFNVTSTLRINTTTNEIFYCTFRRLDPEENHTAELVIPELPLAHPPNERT

T2 sequence (Q9NZQ7 19-239 limits assumed): as above
T3 sequence (Q9NZQ7 19-238 limits assumed): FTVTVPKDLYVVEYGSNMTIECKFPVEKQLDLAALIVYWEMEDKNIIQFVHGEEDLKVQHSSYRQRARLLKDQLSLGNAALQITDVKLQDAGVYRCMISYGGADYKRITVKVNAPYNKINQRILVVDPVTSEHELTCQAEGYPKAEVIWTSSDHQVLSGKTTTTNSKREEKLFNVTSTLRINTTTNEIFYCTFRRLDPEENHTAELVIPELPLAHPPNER
T1 sequence (G7PSE7 entry or part of it limits assumed): as the sequence (Q9NZQ7 19-238 limits assumed) above, with A33T, A34S, S62N, R68Q, Q82R, F173L, T185A, T192I, H215L counted along it

EC50 [1]: 0.115 µg/mL | EC50 [2]: 0.0485 µg/mL | IC50 [3]: 0.00242 µg/mL | Kd [4]: 0.94 nM | koff [4]: 0.000219 s⁻¹ | kon [4]: 233000 M⁻¹ s⁻¹
B1: humanized antibody 900339 (antibody, V domains shown)
VH: QVQLVQSGAEVKKPGASVKVSCKASGYAFTGYTIHWVRQAPGQRLEWMGWFYPGSGTLKYSEKFQGRVTITRDKSLSTAYMELSSLRSEDTAVYYCARHGTGTLMAMDYWGQGTLVTVSS
VL: DVVMTQTPLSLSVTPGQPASISCKSSQSLANSYGNTYLSWYLHKPGQSPQLLIYGISNRFSGVPDRFSGSGSGTDFTLKISRVEAEDVGVYYCLQGTHQPPTFGQGTKLEIK
notes: Humanized from the chimeric antibody; Expressed in CHO-S cells; also called humanized PD-L1 monoclonal antibody

Kd [5]: 2.74 nM
B2: 36C06-D8 (antibody, V domains shown)
VH: QVQLQQSGAELVKPGASVKLSCKASGYAFTGYTIHWVKQRSGLGLEWLGWFYPGSGTLKYNEKFKDKATLTADKSSSTVYLELSRLTSEDSAVYFCARHGTGTLMAMDYWGQGTSVTVSS
VL: DVVVTQTPLSLPVSFGDQVSISCRSSQSLANSYGNTYLSWYLHKPGQSPQLLIYGISNRFSGVPDRFSGSGSGTDFTLKISTIKPEDLGMYYCLQGTHQPPTFGGGTKLEIK
notes: also called hybridoma 36C06/D8; mouse monoclonal antibody against human PD-L1

EC50 [1]: 0.14 µg/mL | EC50 [2]: 0.0433 µg/mL | IC50 [3]: 0.00199 µg/mL | Kd [4]: 1.34 nM | koff [4]: 0.000312 s⁻¹ | kon [4]: 233000 M⁻¹ s⁻¹
B3: chimeric antibody 900289 (antibody, V domains shown)
VH: B2 VH
VL: B2 VL
notes: Expressed in CHO-S cells; also called chimeric IgG1-kappa antibody; human-mouse chimeric antibody
